Experimental data as given in US20190100602A1 (INSERM INSTITUT NATIONAL DE LA SANT ET DE LA RECHERCHE M …, published 2019).
Where a chain is given by its changes, count along the chain named.

B1: KB-AT-002 (VHH)
VHH: QVQLVQSGGGLVQAGGSLRLSCAASGRTFNNNGMGWFRQAPGKEREFVAAISWSGGSTYYADSVKGRYIMSRDNAKNTVYLQMNSLKPEDTAVYYCAARTRYNSGLFSRNYDYWGQGTQVTVSS
notes: Monovalent anti-antithrombin single-domain antibody; also called sdAb KB-AT-002
B2: KB-AT-006 (VHH)
VHH: B1 VHH with V5Q, N30S, G55S, I69T, M70I, L106Y, S108T
notes: Monovalent anti-antithrombin single-domain antibody; also called sdAb KB-AT-006
B3: KB-AT-005 (VHH)
VHH: EVQLVESGGGLVQPGGSLRLSCEASGRDFNDAALGWSRQVPGKARETVAMITSGGVRNYAETVKDRFTISRDNAKNTVYLDMNNLQPDDTGVYYCKADSFKGDYDTSWYLYWGQGTQVTVSS
notes: Monovalent anti-antithrombin single-domain antibody; also called sdAb KB-AT-005
B4: KB-AT-001 (VHH)
VHH: QVQLQQSGGDLAQRGGSLRLSCAASGRTFRNYVMGWFRQAPGKDPEFIAGINRSGAITYYGDSVKGRFTISRDNAKNTVSLQMNSLEPEDTAVYYCAAGETTWSIRRDDYDYWGQGTQVTVSS
notes: Monovalent anti-antithrombin single-domain antibody; also called sdAb KB-AT-001
B5: KB-AT-007 (VHH)
VHH: B4 VHH with D10G, A12V, R14A
notes: Monovalent anti-antithrombin single-domain antibody; same CDRs as KB-AT-001; also called sdAb KB-AT-007
B6: KB-AT-004 (VHH)
VHH: VQLQQSGGGLVQPGGSLRLSCAASAMTFSIRAWAWYRQAPGKQRELVASIGTGDITNYADSVKGRFTISRDNAKNTFYLQMNSLKPEDTAVYYCNGYRSTYAWGQGTQVTVSS
notes: Monovalent anti-antithrombin single-domain antibody; also called sdAb KB-AT-004

The binders below were run against T1, human antithrombin (human, UniProt P01008 33-464) (assay: cell-based or functional assay).
T1 sequence (P01008 33-464 limits assumed): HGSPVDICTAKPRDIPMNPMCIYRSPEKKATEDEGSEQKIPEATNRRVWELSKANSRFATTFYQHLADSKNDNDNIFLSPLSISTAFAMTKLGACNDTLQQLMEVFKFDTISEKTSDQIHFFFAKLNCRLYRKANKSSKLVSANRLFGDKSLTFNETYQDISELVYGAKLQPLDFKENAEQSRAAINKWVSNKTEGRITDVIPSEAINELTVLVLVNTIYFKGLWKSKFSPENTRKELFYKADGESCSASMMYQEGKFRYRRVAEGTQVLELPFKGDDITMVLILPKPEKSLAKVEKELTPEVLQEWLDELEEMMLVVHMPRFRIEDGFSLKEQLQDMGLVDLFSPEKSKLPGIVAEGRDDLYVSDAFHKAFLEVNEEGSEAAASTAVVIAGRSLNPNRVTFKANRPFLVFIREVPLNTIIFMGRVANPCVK

Binder | percentage of neutralization of antithrombin-mediated factor Xa inhibition, with LMW-heparin | percentage of neutralization of antithrombin-mediated thrombin inhibition, with unfractionated heparin
B1 | < 15% | < 5%
B2 | < 15% | < 5%
B3 | < 15% | < 5%
B4 | < 15% | < 5%
B5 | < 15% | < 5%
B6 | < 15% | < 5%

Target: T1, human antithrombin
Test: cell-based or functional assay
Remark: another data set of the same source

Binder | % antithrombin neutralization (thrombin amidolytic activity on S-2238, no heparin)
B1 | 65%
B2 | 58%
B3 | 57%
B4 | 62%
B5 | 61%
B6 | 55%

Each binder was assayed against T1, human antithrombin (assay: BLI (Octet-QK), sdAb coupled to sensor, antithrombin 12.5-50 ug/ml; apparent KD).
Experimental: The interaction between sdAbs KB-AT-001, KB-AT-002, KB-AT-003 and KB-AT-006 versus human antithrombin was further analyzed via biolayer-interferometry analysis using Octet-QK equipment in order to determine apparent dissociation constants (KD,app). To this end, sdAbs KB-AT-001, KB-AT-002, KB-AT-003 and KB-AT-006 were diluted in 0.1 M Mes (pH 5.0) to a concentration of 200 microgram/ml for coupling to EDC/NHS-activated amine-reactive biosensors (Fort6bio, Menlo Park, Calif., USA). Sensors were rehydrated in 0.2 ml 0.1 M MES, pH 5.0 for 300 sec. Sensors were then activated via incubation with 0.1 ml 0.2 M EDC/0.095 M NHS mixture for 300 sec and subsequently incubated with 0.1 ml sdAb-solution for 600 sec. […] Following this association phase, sensors were transferred to wells containing PBS-T and incubated for 900 sec, allowing dissociation of the antithrombin-sdAb complex. Obtained data were subsequently analyzed using Octet-QK data analysis software (Origin vs 4) to estimate KD,app.

Binder | Kd
B1 | 4 nM
B2 | 22 nM
B4 | 14 nM

The binders below were run against T2, rabbit antithrombin (rabbit) (assay: ELISA, sdAb coated, plasma 1/4, bound antithrombin probed with polyclonal anti-antithrombin).
T2 construct: Native protein in plasma diluted 1/4; also called rabbit AT; antithrombin in rabbit plasma
Experimental: (§1) sdAbs KB-AT-001, -002. -003, -004, -005, -006, and -007 were immobilized (10 microgram/ml) in 10 mM NaHCO₃, 50 mM Na2CO3 (pH 9.5) in a volume of 50 microliter in half-well microtiter plates (Greiner Bio-One, Les Ulis, France) for 16 h at 4° C. As a positive control, polyclonal anti-antithrombin antibodies (MATIII-EIA kit, Affinity biologicals, Ancaster Canada) were immobilized in a similar fashion. As a negative control, the anti-von Willebrand sdAb KB-VWF-006 was immobilized. After washing the wells three times with 100 microliter/well using Tris-buffered saline (pH 7.6) supplemented with 0.1% Tween-20 (TBS-T), wells were blocked with 100 microliter/well of TBS-T supplemented with 3% bovine serum albumin (BSA) for 30 min at 37° C. Wells were washed as described above, and subsequently the following plasma preparations (diluted ¼ in TBS-T/3% BSA, 100 microliter per well, 2 hours at 37° C.) were added to each of the immobilized sdAbs and both types of control wells: rabbit plasma, canine plasma, simian plasma, bovine plasma, porcine plasma, rat plasma, murine plasma and human plasma.
(§2) Wells were then washed three times with 100 microliter/well using TBS-T. Bound antithrombin was probed with peroxidase-labeled polyclonal anti-antithrombin antibodies (MATIII-EIA kit, Affinity biologicals, Ancaster Canada; diluted 1/100) for 2 hours at 37° C. with 50 microliter per well. Wells were then washed three times with 100 microliter/well using TBS-T. Residual peroxidase activity was detected by measuring peroxidase-mediated hydrolysis of 3,3′,5,5′-tetramethylbenzidine.
(§3) Negative binding (−) was defined as optical density (OD) being ≤0.1, moderate positive binding (+) was defined as OD being >0.1 and <0.5, strongly positive binding (++) was defined as OD being ≥0.5. […] All plasma preparations had moderate or strongly positive binding to the positive control (polyclonal anti-antithrombin antibodies).

Binder | OD
B3 | ≤ 0.1 od
B5 | ≤ 0.1 od
B6 | ≤ 0.1 od

These binders were tested against T3, canine antithrombin (canine) in the same assay as above.
T3 construct: Native protein in plasma diluted 1/4; also called canine AT; antithrombin in canine plasma
Experimental: as §1, §2, §3

Binder | OD
B3 | ≤ 0.1 od
B4 | ≤ 0.1 od
B5 | ≤ 0.1 od

Each binder was assayed against T4, bovine antithrombin (bovine, UniProt P41361 33-465) in the same assay as above.
T4 construct: Native protein in plasma diluted 1/4; also called bovine AT; antithrombin in bovine plasma
Experimental: as §1, §2, §3

T4 sequence (P41361 33-465): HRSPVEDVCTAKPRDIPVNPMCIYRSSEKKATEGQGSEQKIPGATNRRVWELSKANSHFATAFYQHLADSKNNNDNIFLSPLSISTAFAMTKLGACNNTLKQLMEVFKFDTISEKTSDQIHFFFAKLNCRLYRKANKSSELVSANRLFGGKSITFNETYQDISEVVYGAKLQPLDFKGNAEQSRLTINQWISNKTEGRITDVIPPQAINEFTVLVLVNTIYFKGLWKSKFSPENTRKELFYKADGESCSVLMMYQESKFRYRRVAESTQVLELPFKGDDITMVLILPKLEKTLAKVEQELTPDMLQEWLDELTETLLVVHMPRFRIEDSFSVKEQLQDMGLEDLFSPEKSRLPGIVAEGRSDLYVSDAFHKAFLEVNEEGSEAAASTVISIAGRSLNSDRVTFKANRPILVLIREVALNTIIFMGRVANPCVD

Binder | OD
B2 | ≤ 0.1 od
B3 | ≤ 0.1 od
B4 | ≤ 0.1 od
B5 | ≤ 0.1 od
B6 | ≤ 0.1 od

What follows are binders tested against T5, porcine antithrombin (porcine) in the same assay as above.
T5 construct: Native protein in plasma diluted 1/4; also called porcine AT; antithrombin in porcine plasma
Experimental: as §1, §2, §3

Binder | OD
B3 | ≤ 0.1 od
B4 | ≤ 0.1 od
B5 | ≤ 0.1 od

These binders were tested against T6, rat antithrombin (rat, UniProt Q8VHJ4) in the same assay as above.
T6 construct: Native protein in plasma diluted 1/4; also called rat AT; antithrombin in rat plasma
Experimental: as §1, §2, §3

Binder | OD
B3 | ≤ 0.1 od
B5 | ≤ 0.1 od

Each binder was assayed against T2, rabbit antithrombin (assay: ELISA, sdAb coated, plasma 1/4, bound antithrombin probed with polyclonal anti-antithrombin; grade by OD).
Experimental: as §1, §2, §3

Binder | OD
B1 | ≥ 0.5 od
B2 | ≥ 0.5 od
B4 | 0.1 to 0.5 od

Each binder was assayed against T3, canine antithrombin in the same assay as above.
Experimental: as §1, §2, §3

Binder | OD
B1 | ≥ 0.5 od
B2 | 0.1 to 0.5 od
B6 | 0.1 to 0.5 od

Each binder was assayed against T7, simian antithrombin (simian) in the same assay as above.
T7 construct: Native protein in plasma diluted 1/4; also called simian AT; antithrombin in simian plasma
Experimental: as §1, §2, §3

Binder | OD
B1 | ≥ 0.5 od
B2 | ≥ 0.5 od
B3 | 0.1 to 0.5 od
B4 | ≥ 0.5 od
B5 | ≥ 0.5 od
B6 | 0.1 to 0.5 od

These binders were tested against T4, bovine antithrombin in the same assay as above.
Experimental: as §1, §2, §3

Binder | OD
B1 | ≥ 0.5 od

These binders were tested against T5, porcine antithrombin in the same assay as above.
Experimental: as §1, §2, §3

Binder | OD
B1 | ≥ 0.5 od
B2 | 0.1 to 0.5 od
B6 | 0.1 to 0.5 od

What follows are binders tested against T6, rat antithrombin in the same assay as above.
Experimental: as §1, §2, §3

Binder | OD
B1 | ≥ 0.5 od
B2 | 0.1 to 0.5 od
B4 | 0.1 to 0.5 od
B6 | 0.1 to 0.5 od

Each binder was assayed against T1, human antithrombin in the same assay as above.
Experimental: as §1, §2, §3

Binder | OD
B1 | ≥ 0.5 od
B2 | 0.1 to 0.5 od
B3 | 0.1 to 0.5 od
B4 | 0.1 to 0.5 od
B5 | 0.1 to 0.5 od
B6 | 0.1 to 0.5 od

The binders below were run against T8, murine antithrombin (mouse, UniProt P32261 33-465) in the same assay as above.
T8 construct: also called mouse antithrombin; murine AT
Experimental: as §1, §2, §3

T8 sequence (P32261 33-465 limits assumed): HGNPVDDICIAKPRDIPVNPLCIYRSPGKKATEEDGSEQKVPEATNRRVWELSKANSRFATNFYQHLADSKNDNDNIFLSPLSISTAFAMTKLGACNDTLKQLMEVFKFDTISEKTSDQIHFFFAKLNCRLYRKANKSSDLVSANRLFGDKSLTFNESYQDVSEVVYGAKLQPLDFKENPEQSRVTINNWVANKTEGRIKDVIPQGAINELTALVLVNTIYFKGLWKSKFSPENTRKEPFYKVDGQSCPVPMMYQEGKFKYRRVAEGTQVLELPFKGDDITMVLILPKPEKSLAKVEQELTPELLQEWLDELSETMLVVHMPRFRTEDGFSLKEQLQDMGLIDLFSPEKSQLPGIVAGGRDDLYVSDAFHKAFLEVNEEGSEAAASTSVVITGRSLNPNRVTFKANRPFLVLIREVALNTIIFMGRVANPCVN

Binder | OD
B1 | ≥ 0.5 od
B2 | 0.1 to 0.5 od
B3 | 0.1 to 0.5 od
B4 | ≥ 0.5 od
B5 | 0.1 to 0.5 od
B6 | ≥ 0.5 od

These binders were tested against T1, human antithrombin (assay: ELISA: sdAb coated on the plate, antithrombin added in solution; the concentration is that of antithrombin).
Experimental: (§4) sdAbs recognizing antithrombin (KB-AT-001, -002, -003, -004, -005, -006, and -007) were immobilized (5 microgram/ml) in 10 mM NaHCO₃, 50 mM Na2CO3 (pH 9.5) in a volume of 50 microliter in half-well microtiter plates (Greiner Bio-One, Les Ulis, France) for 16 h at 4° C. After washing the wells three times with 100 microliter/well using Tris-buffered saline (pH 7.6) supplemented with 0.1% Tween-20 (TBS-T), wells were blocked with 100 microliter/well of TBS-T supplemented with 5% skimmed milk for 30 min at 37° C. Wells were washed as described above, and subsequently different concentrations of purified human antithrombin or murine antithrombin (0-5 micromolar diluted in Tris-buffered saline (pH 7.6) supplemented with 5% skimmed milk; 50 microliter/well) were added to each of the immobilized sdAbs and incubated for 2 hours. Wells were then washed three times with 100 microliter/well using TBS-T. Bound antithrombin was probed with peroxidase-labeled polyclonal rabbit anti-antithrombin antibodies (Diagnostica Stago, Asnièrs-sur-Seine, France; Dilution 1/100) for 1 hour at 37° C. with 50 microliter per well. Wells were then washed three times with 100 microliter/well using TBS-T. Residual peroxidase activity was detected by measuring peroxidase-mediated hydrolysis of 3,3′,5,5′-tetramethylbenzidine. OD-values were plotted against antithrombin concentrations (FIG. 1).

Binder | EC50 (read off the curve)
B1 | ~600 nM
B2 | ~500 nM
B4 | ~700 nM

Each binder was assayed against T8, murine antithrombin in the same assay as above.
Experimental: as §4

Binder | EC50 (read off the curve)
B1 | ~500 nM
B3 | ~400 nM
B4 | ~600 nM
